From article PMC8175417, “Streptococcus pneumoniae pneumolysin and neuraminidase A convert high-density lipoproteins into pro-atherogenic particles” (iScience, 2021)

Biological target: the molecule itself
Experiment: non-reducing SDS-PAGE with Western blot; hirudin blood incubated with 200 nM PLY for 1 h at 37 °C; total HDL isolated from the plasma by flotation ultracentrifugation; samples and 50 ng PLY control run under non-reducing conditions; detected with anti-penta-His antibody

B1: Recombinant Streptococcus pneumoniae serotype 2 Pneumolysin (PLY) (natural protein, UniProt Q04IN8 1-471, looked up)
chain: MANKAVNDFILAMNYDKKKLLTHQGESIENRFIKEGNQLPDEFVVIERKKRSLSTNTSDISVTATNDSRLYPGALLVVDETLLENNPTLLAVDRAPMTYSIDLPGLASSDSFLQVEDPSNSSVRGAVNDLLAKWHQDYGQVNNVPARMQYEKITAHSMEQLKVKFGSDFEKTGNSLDIDFNSVHSGEKQIQIVNFKQIYYTVSVDAVKNPGDVFQDTVTVEDLKQRGISAERPLVYISSVAYGRQVYLKLETTSKSDEVEAAFEALIKGVKVAPQTEWKQILDNTEVKAVILGGDPSSGARVVTGKVDMVEDLIQEGSRFTADHPGLPISYTTSFLRDNVVATFQNSTDYVETKVTAYRNGDLLLDHSGAYVAQYYITWDELSYDHQGKEVLTPKAWDRNGQDLTAHFTTSIPLKGNVRNLSVKIRECTGLAWEWWRTVYEKTDLPLVRKRTISIWGTTLYPQVEDKVEND
notes: Pneumolysin (PLY), Streptococcus pneumoniae serotype 2; recombinant protein bought from Cusabio; Detected with a penta-His antibody
B1: binds.
